Measurements reported in patent US10689651B2, “Method of inhibiting macrophage activation using an inhibitor of PARP9” (THE BRIGHAM AND WOMEN'S HOSPITAL, INC., priority 2013, dated 2020).
“Also recorded” adds a separate entry of the source.

Molecular target: T1, PARP14 (Homo sapiens, UniProt Q460N5)
T1 construct: purchased BPS Bioscience Inc
Assay: Ribosylation assay: PARP14-mediated ADP-ribosylation of STAT1α
Format: biochemical
Settings: recombinant proteins; for PARP14-induced mono ADP-ribosylation at Glu657 and Glu705 of STAT1α: LC-MS/MS, MS1 AUC quantification
From the text: The high resolution/accuracy LTQ-Orbitrap Elite (Thermo Scientific) analyzed TMT peptide samples and the Q Exactive (Thermo Scientific) analyzed in vitro ribosylated peptides. Both mass spectrometers are fronted with a Nanospray FLEX ion source, and coupled to an Easy-nLC1000 HPLC pump (Thermo Scientific). The peptides were subjected to a dual column set-up: an Acclaim PepMap RSLC C18 trap column, 75 um×20 cm (50 um×15 cm on the Q Exactive); and an Acclaim PepMap RSLC C18 analytical column 75 um×250 mm (Thermo Scientific). For TMT analysis the analytical gradient was run at 250 nl/min from 10 to 30% Solvent B (acetonitrile/0.1% formic acid) for 90 minutes, followed by five minutes of 95% Solvent B. Solvent A was 0.1% formic acid. For ribosylated peptides the gradient was run at 250 nl/min from 5 to 28% Solvent B for 30 minutes, followed by five minutes of 95% Solvent B. All reagents were HPLC-grade. […] Unmodified forms were calculated by subtracting the mass of the ADP-ribose (541. 06 Da) from the observed precursor. Modified and unmodified m/z values and corresponding retention time windows were submitted to an inclusion list and analyzed in using the data-independent acquisition module of the Q Exactive (R=35 K).
Recombinant human PARP14 and PARP9 (BPS Bioscience Inc.) proteins, and BSA (Sigma-Aldrich) were incubated with recombinant human STAT1α (OriGene Technologies, Inc.) or STAT6 protein (Sino Biological Inc.) at a final concentration of 5 ng/μl in the presence of 100 μM β-Nicotinamide adenine dinucleotide hydrate (NAD; Sigma-Aldrich) or 6-biotin-17-NAD (Trevigen, Inc.) in 50 mM Tris-HCl buffer (pH 7.4) for 1 hour at room temperature. Ribosylation of STAT1α and STAT6 was detected by LC-MS/MS after trypsin digestion or Western blotting using Streptavidin-HRP (Abcam) after SDS-PAGE. Quantification of the relative abundances of ribosylated STAT1α peptides was completed by calculating the area under the curve (AUC) of the extracted ion chromatograms (XICs) of the monoisotopic peaks of the modified versus unmodified peptides. […]

T1 sequence (Q460N5 whole entry): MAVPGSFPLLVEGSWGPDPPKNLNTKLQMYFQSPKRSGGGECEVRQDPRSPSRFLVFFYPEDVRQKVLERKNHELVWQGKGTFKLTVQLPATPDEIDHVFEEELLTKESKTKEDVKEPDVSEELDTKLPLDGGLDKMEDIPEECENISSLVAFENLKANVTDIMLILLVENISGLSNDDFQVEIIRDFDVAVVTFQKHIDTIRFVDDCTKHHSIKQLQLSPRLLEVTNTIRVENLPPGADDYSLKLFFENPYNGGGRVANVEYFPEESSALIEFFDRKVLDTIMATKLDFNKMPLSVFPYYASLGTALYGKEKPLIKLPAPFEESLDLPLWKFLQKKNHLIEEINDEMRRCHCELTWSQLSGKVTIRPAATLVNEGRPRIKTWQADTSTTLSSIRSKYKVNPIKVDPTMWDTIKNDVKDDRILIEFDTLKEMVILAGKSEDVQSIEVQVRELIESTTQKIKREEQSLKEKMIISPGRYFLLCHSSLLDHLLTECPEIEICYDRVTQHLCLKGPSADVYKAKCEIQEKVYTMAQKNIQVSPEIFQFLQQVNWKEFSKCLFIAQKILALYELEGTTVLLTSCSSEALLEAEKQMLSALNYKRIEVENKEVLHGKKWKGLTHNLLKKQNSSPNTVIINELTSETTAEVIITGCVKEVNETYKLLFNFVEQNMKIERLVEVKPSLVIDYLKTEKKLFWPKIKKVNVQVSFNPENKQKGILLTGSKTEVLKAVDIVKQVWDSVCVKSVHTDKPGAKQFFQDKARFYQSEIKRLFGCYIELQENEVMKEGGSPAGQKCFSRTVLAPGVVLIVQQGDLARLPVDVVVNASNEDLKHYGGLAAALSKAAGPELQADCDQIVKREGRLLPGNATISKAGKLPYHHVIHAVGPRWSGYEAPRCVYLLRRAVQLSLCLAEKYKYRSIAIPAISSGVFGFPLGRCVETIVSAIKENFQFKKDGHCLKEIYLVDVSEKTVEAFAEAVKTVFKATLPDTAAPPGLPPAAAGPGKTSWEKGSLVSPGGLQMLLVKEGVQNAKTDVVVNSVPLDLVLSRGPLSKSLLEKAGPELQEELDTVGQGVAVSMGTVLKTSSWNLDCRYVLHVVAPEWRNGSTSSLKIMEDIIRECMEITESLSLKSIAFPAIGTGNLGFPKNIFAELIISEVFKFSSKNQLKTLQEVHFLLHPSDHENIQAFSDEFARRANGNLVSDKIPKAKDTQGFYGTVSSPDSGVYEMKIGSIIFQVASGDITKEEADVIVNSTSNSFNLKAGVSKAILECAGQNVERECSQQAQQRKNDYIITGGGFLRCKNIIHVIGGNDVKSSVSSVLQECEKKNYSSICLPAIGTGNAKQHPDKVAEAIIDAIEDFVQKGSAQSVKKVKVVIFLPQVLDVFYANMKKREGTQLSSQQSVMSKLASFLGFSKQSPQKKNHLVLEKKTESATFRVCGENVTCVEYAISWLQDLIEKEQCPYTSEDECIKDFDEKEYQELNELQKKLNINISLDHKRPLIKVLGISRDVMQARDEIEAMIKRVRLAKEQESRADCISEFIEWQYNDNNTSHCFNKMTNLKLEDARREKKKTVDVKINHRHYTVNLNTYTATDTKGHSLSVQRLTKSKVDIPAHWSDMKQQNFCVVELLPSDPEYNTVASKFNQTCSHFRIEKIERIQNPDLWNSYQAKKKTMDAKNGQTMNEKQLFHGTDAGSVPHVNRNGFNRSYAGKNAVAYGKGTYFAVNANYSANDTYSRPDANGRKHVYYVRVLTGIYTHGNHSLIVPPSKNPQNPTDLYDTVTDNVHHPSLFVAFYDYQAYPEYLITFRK

## recombinant PARP9: Recombinant human PARP9 protein (BPS Bioscience Inc.) added to the PARP14 ribosylation assay
  PARP14-induced mono ADP-ribosylation at Glu657 and Glu705 of STAT1α: inhibited
Listed as PARP9
  PARP14-induced mono ADP-ribosylation at Glu657 and Glu705 of STAT1α: inhibition
Protein ribosylation assay (Western blot)
  ADP-ribosylation of STAT1α by PARP14: suppressed; also recorded: inhibits
